Substrate in series [1]: O=C(O)C(=O)Cc1ccccc1
As to the kind of experiment: PPA decarboxylation; phenylacetaldehyde extracted and measured by GC-MS. The format is biochemical, Rosa hybrid cultivar. The note with it: 1 mM TPP, 5 mM MgCl2, 0.1 M citrate pH 6.0, 40 °C. From the text: PPA decarboxylation; phenylacetaldehyde extracted and measured by GC-MS on […] | the kcat/Km value of […] was higher for PPA than for pyruvic acid (PA)

Substrate in series [2]: CC(=O)C(=O)O
As to the kind of experiment: purified protein. Type of series: biochemical, Rosa hybrid cultivar. The note with it: 1 mM TPP, 5 mM MgCl2, 0.1 M citrate pH 6.0, 40 °C.

This is an account of results in publication PMC4735289, “Seasonal induction of alternative principal pathway for rose flower scent” (Scientific Reports, 2016).

B1: RyPPDC (Rosa hybrid cultivar) (protein)
chain: MEPSTLIGATPRPTSALLPVVPAAACSGTLGRHLARRLVEIGVHDVFSVPGDFNLTLLDHLIAEPELNLIGCCNELNAGYAADGYARARGVGACVVTFTVGGLSVLNAIAGAYSENLPVICIVGGPNSNDYGTNRILHHTIGLPDFTQELRCFQTVTCHQAVVSHLEDAHELIDTAISTALKESKPVYISISCNLPAIPHPTFGRDPVPFFIAPKVSNQIGLEAAVEATAAFLNKAVKPVLVGGPKLRVAKAQKAFVELADASGYPMAVMPSGKGLVPEHHPHFIGTYWGAVSTSFCGEIVESADAYVFVGPIFNDYSSVGYSLLIKKEKAIIVEPNRVTIGNGPSFGWVFMGDFLTALAKKLKKNSTGMENYCRIFVPPGIPLKAQKDEPLRVNVLFKHIQEIVTPNTAIISETGDSWFNCQKLRLPENCGYEFQMQYGSIGWSVGATLGYAQGAKDKRVIACIGDGSFQVTAQDISTMIRCGQNTIIFLINNGGYTIEVEIHDGPYNVIKNWDYTGLVDAIHNGEGKCWTTKVRTEEDLTEAIAKATGEHKDSLCFIEVFVHKDDTRKELLEWGSRVSAANSRPPNPQ
notes: recombinant, baculovirus-insect cell (HighFive) expression, purified by DEAE, Phenyl HP and Superdex 200; cDNA from rose petals
As for B1, in series [1], the Km was determined as 1.32 ± 0.06 mM and the catalytic constant (kcat) was found to be 0.0297 ± 0.00033 s⁻¹. Further, in series [2], the Km came to 4.70 ± 0.32 mM and the kcat amounted to 0.0215 ± 0.0005 s⁻¹.

The term Km denotes the concentration of substrate that gives half-maximal velocity. The kcat is the number of substrate molecules converted per active site and unit of time at saturation.
